Experimental findings from US11358997 are described below.

The test addresses mouse leptin receptor on Ba/F3-mLR cells (mouse) (UniProt P48356). The experiment in a line: cell-based or functional assay.
Sequence of UniProt P48356 (P48356 22-1162): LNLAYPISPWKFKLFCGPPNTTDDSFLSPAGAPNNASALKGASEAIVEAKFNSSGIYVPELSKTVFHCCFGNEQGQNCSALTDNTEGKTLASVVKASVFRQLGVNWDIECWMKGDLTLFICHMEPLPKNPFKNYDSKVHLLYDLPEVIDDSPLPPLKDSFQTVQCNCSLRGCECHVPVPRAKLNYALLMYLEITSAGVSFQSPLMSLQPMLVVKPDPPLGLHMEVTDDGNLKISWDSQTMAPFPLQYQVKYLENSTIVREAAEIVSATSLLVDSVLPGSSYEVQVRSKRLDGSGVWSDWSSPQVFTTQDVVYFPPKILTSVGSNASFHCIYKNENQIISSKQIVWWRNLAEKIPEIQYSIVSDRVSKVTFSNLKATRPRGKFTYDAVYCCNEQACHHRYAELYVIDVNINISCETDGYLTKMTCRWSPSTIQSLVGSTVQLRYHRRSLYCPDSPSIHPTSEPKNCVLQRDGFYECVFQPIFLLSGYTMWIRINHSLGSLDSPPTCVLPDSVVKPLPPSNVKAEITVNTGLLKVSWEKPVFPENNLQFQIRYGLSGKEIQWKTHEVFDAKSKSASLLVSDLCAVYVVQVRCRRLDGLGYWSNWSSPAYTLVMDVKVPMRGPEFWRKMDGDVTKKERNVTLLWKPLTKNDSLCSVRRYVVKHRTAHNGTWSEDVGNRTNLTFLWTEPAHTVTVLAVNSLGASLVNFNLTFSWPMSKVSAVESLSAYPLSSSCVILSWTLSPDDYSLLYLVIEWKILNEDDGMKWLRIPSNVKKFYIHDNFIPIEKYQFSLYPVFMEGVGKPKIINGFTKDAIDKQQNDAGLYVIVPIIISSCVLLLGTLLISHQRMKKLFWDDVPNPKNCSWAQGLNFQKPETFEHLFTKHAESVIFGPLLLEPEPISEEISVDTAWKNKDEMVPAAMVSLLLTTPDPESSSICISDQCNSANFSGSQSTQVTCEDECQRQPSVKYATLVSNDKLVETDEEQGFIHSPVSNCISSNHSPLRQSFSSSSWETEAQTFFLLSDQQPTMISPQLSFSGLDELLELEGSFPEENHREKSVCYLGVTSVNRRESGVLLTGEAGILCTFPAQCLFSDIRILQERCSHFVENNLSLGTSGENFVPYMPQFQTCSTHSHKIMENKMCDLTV

With “scTNF WT-6xGGS-mLeptin L86N-FLAG (from UniProt P01375 77-233; P01375 80-233; P01375 80-233; P41160 22-167)”, the induction of proliferation of Ba/F3-mLR cells (XTT assay, 4 days) (times less potent) was found to be 10. “scTNF WT-6xGGS-mLeptin L86S-FLAG (from UniProt P01375 77-233; P01375 80-233; P01375 80-233; P41160 22-167)” showed an induction of proliferation of Ba/F3-mLR cells (XTT assay, 4 days) (times less potent) of 3.
